Experimental findings from US20120321591A1 (COVX TECHNOLOGIES IRELAND, published 2012) are described below.

T1: human angiopoietin-2 protein (human, UniProt O15123 19-496)
T1 construct: also called Ang-2; Ang2
T1 sequence (looked up): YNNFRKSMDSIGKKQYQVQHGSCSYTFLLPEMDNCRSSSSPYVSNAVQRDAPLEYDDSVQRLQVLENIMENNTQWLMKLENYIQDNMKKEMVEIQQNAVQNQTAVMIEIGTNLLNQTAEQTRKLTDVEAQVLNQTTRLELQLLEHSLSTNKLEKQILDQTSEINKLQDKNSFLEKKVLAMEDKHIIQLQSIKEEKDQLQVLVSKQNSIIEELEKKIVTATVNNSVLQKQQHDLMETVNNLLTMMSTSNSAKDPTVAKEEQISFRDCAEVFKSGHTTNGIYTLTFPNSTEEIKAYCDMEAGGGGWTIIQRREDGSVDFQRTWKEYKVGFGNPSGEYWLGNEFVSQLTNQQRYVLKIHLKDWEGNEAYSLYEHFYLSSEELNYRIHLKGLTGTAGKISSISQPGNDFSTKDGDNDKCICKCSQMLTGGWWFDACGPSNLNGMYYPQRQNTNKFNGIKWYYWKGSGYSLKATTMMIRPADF

B1: Compound 4047, peptide plus linker (T) (peptide)
peptide: QK(Ac)YQ[Hyp]LDE[ThA]DK(0P linker)TL[Phe(4-COOH)]DQFMLQQG-NH2
modifications: not fully specified; reading uncertain; also: N-terminal acyl cap, acyl not given here
notes: also called 4047 T
B2: Compound 4034, peptide plus linker (T) (peptide)
peptide: QXYQXLDELDKTLYDQFMLQQG
modifications: not fully specified; N-terminal acyl cap; C-terminal amino cap; Kac 2; D(HP) 5; 0P linker on K11
notes: also called 4034 T
B3: Compound 4045, peptide plus linker (T) (peptide)
peptide: QK(Ac)YQ[Hyp]LDE[ThA]DK(0P linker)TL[Phe(4-NO2)]DQFMLQQG-NH2
modifications: not fully specified; reading uncertain; also: N-terminal acyl cap, acyl not given here
notes: also called 4045 T
B4: Compound 4048, peptide plus linker (T) (peptide)
peptide: QK(Ac)YQPLDEK(Ac)DK(0P linker)TL[Phe(4-NO2)]DQFMLQQG-NH2
modifications: reading uncertain; also: N-terminal acyl cap, acyl not given here, printed as Q(Kac)Y QPL DE(Kac) DK(0P)T L(NO2)FD QFM LQQ G
notes: also called 4048 T
B5: Compound 4055, peptide plus linker (T) (peptide)
peptide: QXYQPLDELDXTLYDQFMLQQG
modifications: not fully specified; N-terminal acyl cap; C-terminal amino cap; Kac 2; 0P linker on Dap 11
notes: also called 4055 T
B6: Compound 4025, peptide plus linker (T) (peptide)
peptide: QNYQPLDELDK(4P linker)TLYDQFMLQQG-NH2
modifications: reading uncertain; also: N-terminal acyl cap, printed as QNY QPL DEL DK(4P)T LYD QFM LQQ G
notes: also called 4025 T
B7: Compound 4056, peptide plus linker (T) (peptide)
peptide: QNYQPLDELDKTL[Bpa]DQFMLQQG-NH2
modifications: not fully specified (residue 11, N-terminus); also: N-terminal acyl cap, acyl not given here
notes: also called 4056 T
B8: Compound 4057, peptide plus linker (T) (peptide)
peptide: QNYQPLDELDKTL[Phe(4-COOH)]DQFMLQQG-NH2
modifications: not fully specified (residue 11, N-terminus); also: N-terminal acyl cap, acyl not given here
notes: also called 4057 T
B9: Compound 4061, peptide plus linker (T) (peptide)
peptide: QXYQPLDELDKTLYDQFMLQQG
modifications: not fully specified; N-terminal acyl cap; C-terminal amino cap; Nick 2; 0P linker on K11
notes: also called 4061 T
B10: Compound 4046, peptide plus linker (T) (peptide)
peptide: QK(Ac)YQ[Hyp]LDE[ThA]DK(0P linker)TL[Bpa]DQFMLQQG-NH2
modifications: not fully specified; reading uncertain; also: N-terminal acyl cap, acyl not given here

Bridges are numbered along the chain shown (N, C = ends). Where no end group is shown, it is not given here. [ ]: non-standard residue; d: D form. Phe(4-NO2) = N[C@@H](Cc1ccc([N+](=O)[O-])cc1)C(=O)O; Phe(4-COOH) = N[C@@H](Cc1ccc(C(=O)O)cc1)C(=O)O; Bpa = N[C@@H](Cc1ccc(C(=O)c2ccccc2)cc1)C(=O)O; Hyp = O=C(O)[C@@H]1C[C@@H](O)CN1; 0P linker = not defined here; 4P linker = not defined here; ThA = not defined here

The first test concerns the target T1, human angiopoietin-2 protein. As to the kind of experiment: competitive ELISA: Tie-2-Fc binding to coated Ang-2; T. Here is the method: (§1) Plates were washed three times with washing buffer (0.1% Tween 20, PBS, pH 7.4) and blocked with Superblock (Scytek), […] at room temperature (“RT”) for 1 hour. […] Plates were washed 3 times with washing buffer. […] Following incubation, 50 ul of 1:5,000 dilution of goat anti-mouse IgG-HRP in Superblock was then added and incubated at RT for one hour. After washing 3 times, […] was added, and incubated for 3-5 minutes. Color development was monitored and stopped with 25 μl of 2 M H₂SO₄. OD450 nm with a correction wavelength of 540 nm was measured.
By IC50 is commonly meant the concentration that gives 50% inhibition. Regarding B1, the IC50 was determined as 43.3 nM.

In turn, B2 registered a 50% inhibitory concentration (IC50) of 224 nM. Still for that read-out and setting: the result for XQXYQPLDELDKTLYDQFMLQQG (DFB at N-terminus; C-terminal amino cap; Kac 2; 0P linker on K11) [Compound 4050, peptide plus linker (T)] reads 33 nM. The same measure, in the same setting: the result for QXYQPLDELDKTXYDQFMLQQG (N-terminal acyl cap; C-terminal amino cap; Kac 2; 0P linker on K11; HF 13, also called 4039 T) [Compound 4039, peptide plus linker (T)] reads 4890 nM. The same measure, in the same setting: to QXYQPLDELDKTXYDQFMLQQG (N-terminal acyl cap; C-terminal amino cap; Kac 2; 0P linker on K11; Nva 13, also called 4041 T) [Compound 4041, peptide plus linker (T)] belongs 1340 nM. Consider B3, for which the IC50 is 24.7 nM. The same measure, in the same setting: to QXYQPLDEIDKTLYDQFMLQQG (N-terminal acyl cap; C-terminal amino cap; Kac 2; 0P linker on K11, also called 4037 T) [Compound 4037, peptide plus linker (T)] belongs 1270 nM; to QXYQPLDELDKTIYDQFMLQQG (N-terminal acyl cap; C-terminal amino cap; Kac 2; 0P linker on K11, also called 4036 T) [Compound 4036, peptide plus linker (T)], 2410 nM; to QXYQPLDELDKTLFDQFMLQQG (N-terminal acyl cap; C-terminal amino cap; Kac 2; 0P linker on K11, also called 4044 T) [Compound 4044, peptide plus linker (T)], 36.9 nM.

In turn, B4 gave an IC50 of 82.4 nM. The same measure, in the same setting: the result for B5 reads 598 nM. The same measure, in the same setting: the result for B6 reads 300 nM; that for QXYQPLDELDKTLYDQFMLQQG (N-terminal acyl cap; C-terminal amino cap; Kac 2; 4P linker on K11, also called 4024 T) [Compound 4024, peptide plus linker (T)], 207 nM; that for XQXYQPLDELDKTLYDQFMLQQG (DCB at N-terminus; C-terminal amino cap; Kac 2; 0P linker on K11, also called 4049 T) [Compound 4049, peptide plus linker (T)], 28.4 nM. On the same count and under the same terms, the result for B7 reads 92.2 nM; that for B8, 110 nM. The molecule B9 gave an IC50 of 83.9 nM.

In turn, QXYQPLDELDKTLYDQFMLQQG (N-terminal acyl cap; C-terminal amino cap; Kac 2; 0P linker on K11, also called 4029 T) [Compound 4029, peptide plus linker (T)] displayed an IC50 of 83.3 nM. Still for that read-out and setting: the result for XQXYQPLDELDKTLYDQFMLQQG (PyC at N-terminus; C-terminal amino cap; Kac 2; 0P linker on K11, also called 4051 T) [Compound 4051, peptide plus linker (T)] reads 14.3 nM; that for QXYQXLDELDKTLYDQFMLQQG (N-terminal acyl cap; C-terminal amino cap; Kac 2; HP 5; 0P linker on K11, also called 4035 T) [Compound 4035, peptide plus linker (T)], 121 nM.

As for QXYQPLDELDXTLYDQFMLQQG (N-terminal acyl cap; C-terminal amino cap; Kac 2; 0P linker on Dab 11, also called 4054 T) [Compound 4054, peptide plus linker (T)], the IC50 was 292 nM. The same measure, in the same setting: the result for QXYQPLDEKDXTLYDQFMLQQG (N-terminal acyl cap; C-terminal amino cap; Kac 2; 0P linker on K9; Kac 11, also called 4030 T) [Compound 4030, peptide plus linker (T)] reads 279 nM. The same measure, in the same setting: to QK(Ac)YQPLDEK(Ac)DKTL[Phe(4-COOH)]DQFMLQQG-NH2 (not fully specified (residue 11, N-terminus), also called 4062 T) [Compound 4062, peptide plus linker (T)] belongs 499 nM; to B10, 82.7 nM. On the same count and under the same terms, to XQXYQPLDELDKTLYDQFMLQQG (Amido 2-PEG at N-terminus; C-terminal amino cap; Kac 2; 0P linker on K11, also called 4052 T) [Compound 4052, peptide plus linker (T)] belongs 134 nM; to QXYQPLDELDKTXYDQFMLQQG (N-terminal acyl cap; C-terminal amino cap; Kac 2; 0P linker on K11; HL 13, also called 4042 T) [Compound 4042, peptide plus linker (T)], 1340 nM.

The target is the same in a further test. As to the kind of experiment: competitive ELISA: Tie-2-Fc binding to coated Ang-2; peptide alone. How it is done:
as §1
For QNYQPLDELDKTLYDQFMLQQG-NH2 (also: N-terminal acyl cap) [Compound 4023], the IC50 came out at 27.8 nM. Still for that read-out and setting: to QKYQPLDELDKTLYDQFMLQQG-NH2 (also: N-terminal acyl cap) [Compound 4021] belongs 25.8 nM; to QXYQPLDELDKTLYDQFMLQQG (N-terminal acyl cap; C-terminal amino cap; Kac 2) [Compound 4022], 41.9 nM.

The target in the next test is T2, recombinant human VEGF165 (human, UniProt P15692-4 27-191).
T2 construct: also called rhVEGF165
T2 sequence (P15692 other isoform, or with tags, fused parts or gaps limits assumed): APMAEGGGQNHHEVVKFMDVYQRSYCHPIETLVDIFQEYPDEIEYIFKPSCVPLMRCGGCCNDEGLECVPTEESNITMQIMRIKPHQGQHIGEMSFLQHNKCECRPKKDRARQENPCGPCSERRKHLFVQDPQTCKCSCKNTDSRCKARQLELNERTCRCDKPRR
As to the kind of experiment: competition ELISA: VEGF165 binding to coated VEGFR2/Fc; normalized value. On the technique in general: An ELISA detects its analyte on a solid surface through an enzyme-linked reagent.
Regarding Ac-VEPNCDIHVMWVWECFERLYGGW-NH2 (disulfide 5-15 (inferred)) [[VEGF-Peptide] SEQ ID NO:35], the IC50 is 325 nM. The same measure, in the same setting: the result for Ac-VEPNCDIHVMWVWVCFERLFKEA-NH2 (disulfide 5-15 (inferred)) [[VEGF-Peptide] SEQ ID NO:37] reads 59 nM.

In the case of Ac-VEPNCDIHVMWVWECFERLYREL-NH2 (disulfide 5-15 (inferred)) [[VEGF-Peptide] SEQ ID NO:39], the IC50 amounted to 70 nM.

With Ac-VEPNCDIHVMWVWVCFERLFREA-NH2 (disulfide 5-15 (inferred)) [[VEGF-Peptide] SEQ ID NO:36], the IC50 was 172 nM. Still for that read-out and setting: the result for Ac-VEPNCDIHVMWEWECFERL-NH2 (disulfide 5-15 (inferred)) [[VEGF-Peptide] SEQ ID NO:34] reads 188 nM.

In another test the target is T2, recombinant human VEGF165. The test is described as above. This is another data set of the same source.
In the case of Ac-VEPNCDIHVMWEWECFERL-NH2 (disulfide 5-15 (inferred)) [[VEGF-Peptide] SEQ ID NO:34], the IC50 is 188 nM.

A further test has as its target T1, human angiopoietin-2 protein. As to the kind of experiment: reverse competition ELISA presumed: Ang-2 binding to coated Tie-2-Fc; peptide alone. How it is done: Plates were washed three times with washing buffer (0.1% Tween 20, PBS, pH 7.4) and blocked with Superblock, 150 μl/well at RT for 1 hour. Plates were washed three times. […] Plates were washed 3 times, and 50 W of streptavidin HRP (1:200 dilution in Superblock) was added at RT for 20 minutes. Plates were washed 3 times, and […] (25 μl TMB+25 μl H₂O₂) substrate solution was added and incubated for 20-30 minutes. Color development was stopped with 25 μl of 2 M H₂SO₄. OD450 nm with a correction wavelength of 540 nm was measured.
QKYQPLDELDKTLYDQFMLQQG-NH2 (also: N-terminal acyl cap) [Compound 4021]: the 50% inhibitory concentration (IC50) came to 36.4 nM.

QXYQPLDELDKTLYDQFMLQQG (N-terminal acyl cap; C-terminal amino cap; Kac 2) [Compound 4022] had an IC50 of 14.4 nM.
